# Patent US20220041738A1 (SAITAMA MEDICAL UNIVERSITY, published 2022)
# Residue numbers refer to the chain shown, from its start.
# T1: human ALK2(WT)-EGFP on cells (human, UniProt Q04771 21-509)
# T1 construct: also called hALK2(WT)-EGFP; human ALK2-EGFP; not shown: EGFP fused to ALK2
# T1 sequence: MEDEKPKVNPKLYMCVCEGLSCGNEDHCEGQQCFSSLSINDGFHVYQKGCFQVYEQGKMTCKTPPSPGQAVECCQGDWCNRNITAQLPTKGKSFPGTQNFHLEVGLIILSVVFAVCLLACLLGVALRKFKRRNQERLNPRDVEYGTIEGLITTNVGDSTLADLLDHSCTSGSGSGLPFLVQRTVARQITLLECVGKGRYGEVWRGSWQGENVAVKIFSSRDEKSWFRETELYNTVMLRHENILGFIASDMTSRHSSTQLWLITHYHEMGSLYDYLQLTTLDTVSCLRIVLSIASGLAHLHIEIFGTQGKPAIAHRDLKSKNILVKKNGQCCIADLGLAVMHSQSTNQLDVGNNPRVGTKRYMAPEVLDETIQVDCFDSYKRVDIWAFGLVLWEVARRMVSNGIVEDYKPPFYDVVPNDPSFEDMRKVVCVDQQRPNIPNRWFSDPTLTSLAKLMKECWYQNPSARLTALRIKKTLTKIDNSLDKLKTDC
# T2: mouse ALK2(WT)-EGFP on HEK293A cells (mouse, UniProt P37172 21-509)
# T2 construct: Expressed from pcDEF3/mouse ALK2(WT)-EGFP; also called mALK2(WT)-EGFP; wild-type mouse ALK2; not shown: EGFP fused to ALK2
# T2 sequence: T1 sequence with M1V, P10Q, L121I, D162E, P310S
# T3: human ALK2(R206H)-EGFP on HEK293A cells (human, UniProt Q04771 21-509)
# T3 construct: also called hALK2(R206H)-EGFP; FOP human ALK2; not shown: EGFP fused to ALK2
# T3 sequence: T1 sequence with R186H
# B1: rat anti-ALK2 monoclonal antibody A2-15A (antibody, V domains shown)
# VH: EVQLVESGGGLVQPGRSLKLSCAASGFTFSHYYMAWVRQAPTKGLEWVASITNSGGSINYRDSVKGRFTISRDNAKSTLYLQMDSLRSEDTATYYCTREGGENYGGYPPFAYWGQGTLVTVSS
# VL: DIVLTQSPALAVSLGQRATISCRANQGVSLSRYNLMHWYQQKPGQKPKLLIYRSSNLASGIPARFSGSGSGTDFTLTINPVQADDIATYYCQQSRESPFTFGAGTKLELKR
# notes: Rat monoclonal IgG from a hybridoma; also called 15A6
# B2: rat anti-ALK2 monoclonal antibody A2-27D (antibody, V domains shown)
# VH: EVQLVESGGGLVQPGRSLKLSCLASGSTFSNYGMKWIRQAPGKGLEWVASISRSSTYIYYADTVKGRFTISRDNARNTLYLQMTSLRSEDTALYYCAAAISTPFYWYFDFWGPGTVVTVSS
# VL: EIVLTQSPTTMAASPGEKVTLNCLASSSVSYMTWYQQKSGASPKLWIYGTSNLASGVPNRFSGSGSGTSYSLAISSMEAEDVATYYCLHLTSYPPYTFGAGTKLELKR
# notes: Rat monoclonal IgG from a hybridoma; also called 27D11
# B3: rat anti-ALK2 monoclonal antibody A2-11E (antibody, V domains shown)
# VH: EVQLVETGGGLVQPGRSLKLSCVASGFTFSNYYMYWIRQAPGKGLEWISSINTDGGSTYYPDSVKGRFAISRDNAENTVYLQMNSLRSEDTATYYCAKSTPNIPLAYWGQGTLVTVSS
# VL: DIQMTQSPSLLSASVGDRVTLSCKASQNIYKYLNWFQQKLGEAPKLLIYYSNSLQTGIPSRFSGSGSGTDFTLTISSLQPEDVAIYFCFQYSSGPTFGPGTKLELKR
# notes: Rat monoclonal IgG from a hybridoma; also called 11E2
# B4: rat anti-ALK2 monoclonal antibody A2-25C (antibody, V domains shown)
# VH: EVQLVESGGGLVQPGGSLKLSCAASGFTFSYYAMSWVCQAPTKGLEWVASISRGGDNTYYRDTVKGRFTTSRDNAKNTLYLQMDSLRSEDTATYYCARLNYNNYFDYWGQGVMVTVSS
# VL: DIQMTQSPASLSASLEEIVTITCQASQDIGNWLSWYQQKPGKSPQLLIYGATSLADGVPSRFSGSRSGTQYSLKISRLRVEDIGIYYCLQAYSAPFTFGSGTKLEIKR
# notes: Rat monoclonal IgG from a hybridoma; also called 25C11
# Target: T1, human ALK2(WT)-EGFP on cells
# Test: flow cytometry on transfected HEK293A cells, Alexa 647 anti-rat IgG (APC-A) against EGFP (FITC-A)
# Method: (§1) HEK293A cells were seeded into a 100-mm dish at 3×10⁴ cells/cm², and cultured overnight in 15% FBS-containing DMEM medium under the conditions of 5% CO₂ at 37° C. On the following day, the HEK293A cells were transfected with each of pcDEF3/mouse ALK2(WT)-EGFP, pcDEF3/human ALK2(WT)-EGFP, pcDEF3/human ALK2 (R206H)-EGFP, and pcDEF3, using Lipofectamine 2000 (Invitrogen), and further cultured overnight. On the following day, 100 μL each of the cell suspensions adjusted to 1×10⁶ cells/mL was dispensed into a 1.5-mL microfuge and centrifuged at 500 g for 5 minutes, and then the supernatant was removed. To the cells, 100 μL of purified IgG diluted to 1 μg/mL was added, and the cells were left for 30 minutes at 4° C. After the cells were washed with PBS three times, 100 μL of Alexa flour 647 Goat anti-Rat IgG (H+L) (Life Technologies) diluted to 1:200 was added, and the cells were further left for 30 minutes at 4° C. After the cells were washed with PBS three times, fluorescence was detected by a flow cytometer (FACS Aria II: BD Biosciences). The data was analyzed using BD Diva Software (BD Biosciences), and the intensity of EGFP expressed by the cells and the fluorescence intensity of stained Alexa flour 647 were plotted.
row,Binder,binding result
1,B1,binds
2,B2,binds
3,B3,binds
4,B4,binds

# Target: T2, mouse ALK2(WT)-EGFP on HEK293A cells
# Test: as above
# Method: as §1
row,Binder,binding result
1,B1,binds
2,B2,binds
3,B3,binds
4,B4,binds

# Target: T3, human ALK2(R206H)-EGFP on HEK293A cells
# Test: as above
# Method: as §1
row,Binder,binding result
1,B1,binds
2,B2,binds
3,B3,binds
4,B4,binds
